Data on one molecule can be found in US20260199458A1 (INCENDIA THERAPEUTICS, published 2026).

Several values for one entry are separate records, joined by “and”; a condition that tells them apart may be missing. Identical values can stand only once.

Assay [1] concerns the target T1, Cynomolgus monkey DDR1 extracellular domain (cynomolgus monkey, UniProt A0A2K5V739 47-443).
T1 construct: extracellular domain; also called Cyno DDR1
T1 sequence: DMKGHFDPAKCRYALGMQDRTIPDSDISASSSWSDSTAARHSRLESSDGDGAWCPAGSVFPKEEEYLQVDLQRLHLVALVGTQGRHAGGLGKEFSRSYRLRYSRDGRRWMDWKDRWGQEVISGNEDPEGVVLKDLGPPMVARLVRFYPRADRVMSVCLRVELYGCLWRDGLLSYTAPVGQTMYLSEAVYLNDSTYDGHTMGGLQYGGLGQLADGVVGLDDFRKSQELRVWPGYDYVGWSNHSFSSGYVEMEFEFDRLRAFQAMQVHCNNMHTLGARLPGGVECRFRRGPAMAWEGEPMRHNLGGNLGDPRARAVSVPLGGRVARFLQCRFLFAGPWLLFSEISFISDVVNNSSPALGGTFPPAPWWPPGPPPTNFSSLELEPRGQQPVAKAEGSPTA
Briefly: Biacore, DDR1 extracellular domain. As for the experimental part:
(§1) First, 9H-1 was tested for its affinity to DDR1 protein from human, mouse, rat, and cynomolgus monkey.

In assay [2] the target is T2, Mouse DDR1 extracellular domain (mouse, UniProt Q03146 22-415).
T2 construct: extracellular domain
T2 sequence (looked up): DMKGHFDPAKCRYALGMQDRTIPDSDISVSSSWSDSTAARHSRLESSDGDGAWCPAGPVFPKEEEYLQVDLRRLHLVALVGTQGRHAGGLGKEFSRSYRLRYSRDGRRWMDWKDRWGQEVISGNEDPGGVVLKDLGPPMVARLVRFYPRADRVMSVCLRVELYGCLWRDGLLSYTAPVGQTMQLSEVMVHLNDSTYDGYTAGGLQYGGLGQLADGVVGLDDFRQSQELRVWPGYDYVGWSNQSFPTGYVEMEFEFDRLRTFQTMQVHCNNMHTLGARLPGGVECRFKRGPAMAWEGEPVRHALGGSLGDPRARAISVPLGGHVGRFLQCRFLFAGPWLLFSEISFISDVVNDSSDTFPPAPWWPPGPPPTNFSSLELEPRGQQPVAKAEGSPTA
Briefly: Biacore, DDR1 extracellular domain. As for the experimental part: as §1

Assay [3] concerns the target T3, Human DDR1 extracellular domain (human, UniProt Q08345 21-417).
T3 construct: extracellular domain
Kind of assay: Biacore, DDR1 extracellular domain. Here is the method:
as §1

Assay [4] deals with T4, Rat DDR1 extracellular domain (rat, UniProt Q63474 22-414).
T4 construct: extracellular domain
T4 sequence (looked up): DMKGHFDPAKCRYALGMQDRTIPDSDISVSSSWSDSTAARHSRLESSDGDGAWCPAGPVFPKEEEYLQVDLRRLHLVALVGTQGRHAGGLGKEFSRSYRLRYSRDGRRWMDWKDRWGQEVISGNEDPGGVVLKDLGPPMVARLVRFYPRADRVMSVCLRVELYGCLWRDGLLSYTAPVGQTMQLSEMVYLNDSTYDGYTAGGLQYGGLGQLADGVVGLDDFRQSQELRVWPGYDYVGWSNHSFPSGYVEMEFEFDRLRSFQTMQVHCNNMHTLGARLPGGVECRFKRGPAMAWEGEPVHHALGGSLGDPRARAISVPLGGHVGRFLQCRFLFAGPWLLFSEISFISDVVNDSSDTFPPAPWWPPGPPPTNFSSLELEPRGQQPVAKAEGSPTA
Briefly: Biacore, DDR1 extracellular domain. Here is the method: as §1

Assay [5] addresses T3, Human DDR1 extracellular domain. Briefly: Biacore, DDR1 extracellular domain; KD in mass units (ng/mL), same fit as the 1.36 nM of r7c2. Here is the method:
as §1

B1: 9H-1 (humanized DDR1-9, WT IgG1 Fc) (antibody, V domains shown)
VH: QVQLVESGGRVVQPGRSLRLSCTASGFSLNRYYMLWVRQAPGKGLEWIGTISYGDTTYYASWAKGRFTISRDNSKNTLYLQMNSLRAEDTAVYYCARADTGDNGYLGLQLWGQGTLVTVSS
VL: DIQMTQSPSSVSASVGDRVTITCQASQSIGSVLAWYQQKPGKAPKLLISGVFDLASGVPSRFSGSGSGTDFTLTISSLQPEDFATYYCQYIPYGSSPFGGGTKVEIKR
notes: In some embodiments the heavy chain lacks the terminal lysine; also called PRTH-101; humanized DDR1-9 (9H-1)_1 WT IgG1 Fc
On to B1, for which the dissociation constant (Kd) in assay [1] was 1.3 nM and 0.195 µg/mL; in assay [2] it was 16.9 nM and 2.54 µg/mL; in assay [3] it was 1.36 nM; in assay [4] it was 2.28 nM and 0.342 µg/mL; in assay [5] it was 0.204 µg/mL. Also, the koff in assay [1] worked out at 0.00015 s⁻¹; in assay [2], 0.00397 s⁻¹; in assay [3], 0.000181 s⁻¹; in assay [4], 0.000455 s⁻¹. Moreover, the on-rate constant (kon) in assay [1] turned out to be 116000 M⁻¹ s⁻¹; in assay [2], 235000 M⁻¹ s⁻¹; in assay [3], 133000 M⁻¹ s⁻¹; in assay [4], 199000 M⁻¹ s⁻¹. In addition, the t1/2 in assay [1] was 77 min; in assay [2] it was 2.9 min; in assay [3] it was 64 min; in assay [4] it was 25.3 min.
